Data set [1] concerns the target T1, TAp63γ (UniProt Q9H3D4-5 40-487).
T1 sequence: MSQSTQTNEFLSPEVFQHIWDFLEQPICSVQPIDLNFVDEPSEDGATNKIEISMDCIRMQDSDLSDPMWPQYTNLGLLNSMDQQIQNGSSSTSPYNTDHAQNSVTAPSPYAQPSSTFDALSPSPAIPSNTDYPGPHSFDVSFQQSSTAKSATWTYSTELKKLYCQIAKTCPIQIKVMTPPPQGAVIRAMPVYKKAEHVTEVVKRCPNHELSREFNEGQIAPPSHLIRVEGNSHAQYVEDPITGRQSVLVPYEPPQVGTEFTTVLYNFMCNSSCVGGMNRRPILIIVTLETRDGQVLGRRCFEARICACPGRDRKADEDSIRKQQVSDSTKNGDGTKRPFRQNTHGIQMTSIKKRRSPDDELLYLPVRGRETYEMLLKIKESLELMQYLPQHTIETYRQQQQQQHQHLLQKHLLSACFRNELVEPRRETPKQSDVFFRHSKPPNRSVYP
Kind of data set: EMSA, supershift.

The target in data set [2] is T2, p53 (UniProt P04637 1-393). Kind of data set: EMSA, supershift. On the technique in general: Mobility shift assays separate free from complexed probe on a gel.
The target in data set [3] is T2, p53. Kind of data set: EMSA.
Data set [4] has as its target T1, TAp63γ. The experiment in a line: EMSA.
The target of data set [5] is T2, p53. Kind of data set: competition.
In data set [6] the target is T1, TAp63γ. Kind of data set: competition.
For data set [7], the target named is T2, p53. Kind of data set: competition. This is another data set of the same source.
Data set [8] concerns the target T1, TAp63γ. Kind of data set: competition. The source holds these as a separate data set.

T2 sequence (P04637 whole entry): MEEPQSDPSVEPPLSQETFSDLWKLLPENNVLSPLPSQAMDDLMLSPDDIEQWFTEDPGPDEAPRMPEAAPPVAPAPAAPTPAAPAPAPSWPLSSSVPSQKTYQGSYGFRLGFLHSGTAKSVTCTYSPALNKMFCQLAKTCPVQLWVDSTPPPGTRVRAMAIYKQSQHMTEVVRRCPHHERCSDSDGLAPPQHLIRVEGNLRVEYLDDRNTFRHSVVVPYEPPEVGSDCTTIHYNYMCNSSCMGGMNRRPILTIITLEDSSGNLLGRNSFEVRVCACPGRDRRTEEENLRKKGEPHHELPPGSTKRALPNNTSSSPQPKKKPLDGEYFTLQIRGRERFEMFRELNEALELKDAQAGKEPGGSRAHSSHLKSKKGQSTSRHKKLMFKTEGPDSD

B1: p21 (p21WAF1/CIP1 p53 site) (dsDNA)
DNA 1: GGCCATCAGGAACATGTCCCAACATGTTGAGCTCT
DNA 2: AGAGCTCAACATGTTGGGACATGTTCCTGATGGCC
Take B1: the binding result in data set [1] and in data set [2] was “binds” throughout.

B2: mdm2 p53 site (dsDNA)
DNA 1: GGGCGGCCGCTGGTCAAGTTGGGACACGTCCGG
DNA 2: CCGGACGTGTCCCAACTTGACCAGCGGCCGCCC
Consider B2, for which the binding result in data set [3] and in data set [4] was “binds” in each case.

B3: S100A2 site 2 mut-2 (dsDNA)
DNA 1: GGGTGGGATCATGTTGAGGCATGTTTGGTTTCCTT
DNA 2: AAGGAAACCAAACATGCCTCAACATGATCCCACCC
As for B3, the binding result in data set [5] and in data set [6] was “binds” in each case.

B4: S100A2 site 2 mut-1 (dsDNA)
DNA 1: GGGTGGGATTGGATTGAGGTGGATTTGGTTTCCTT
DNA 2: AAGGAAACCAAATCCACCTCAATCCAATCCCACCC
For B4, the binding result in data set [7] and in data set [8] was “no binding” in each case.

For the origin of these results see PMC2396407.
